Results taken from patent US20240336686A1.
Like-named read-outs stand apart in the source and are kept apart here.

Experiments:
[1] = biological target: human SIRPα on CHO-K1 cells (human) (UniProt P78324); assay: FACS, CHO-K1 cells overexpressing human SIRPα, anti-human Fc-PE, MFI
[2] = biological target: human SIRPα protein (Octet assay) (human) (UniProt P78324); assay: Octet; antibody on sensor, SIRPα protein in solution
[3] = biological target: human Claudin18.2 on Raji cells (human) (UniProt P56856); assay: FACS, Raji cells overexpressing human Claudin18.2, anti-human Fc-PE, MFI
[4] = biological target: human SIRPα on CHO-K1 cells (human) (UniProt P78324); assay: FACS, CHO-K1 cells overexpressing human SIRPα, anti-human Fc-PE, MFI; remark: listed apart in the source
Human SIRPα v1 (human) = Human SIRPα v1 (human) (UniProt P78324); assay: SPR (Biacore), 1:1 binding model
Sequence of Human SIRPα v1 (human) (P78324 31-370): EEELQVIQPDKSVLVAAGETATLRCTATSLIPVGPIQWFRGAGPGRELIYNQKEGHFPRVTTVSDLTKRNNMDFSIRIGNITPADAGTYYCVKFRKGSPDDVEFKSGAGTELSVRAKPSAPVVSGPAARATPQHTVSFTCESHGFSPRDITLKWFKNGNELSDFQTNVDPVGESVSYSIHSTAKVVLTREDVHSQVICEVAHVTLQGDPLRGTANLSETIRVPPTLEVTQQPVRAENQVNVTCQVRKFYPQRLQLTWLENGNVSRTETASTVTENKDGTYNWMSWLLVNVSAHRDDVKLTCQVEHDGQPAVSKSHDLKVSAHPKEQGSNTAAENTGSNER

Binder | EC50 (read off the curve) [1] [nM] | Kd [2] [nM] | koff [2] [s⁻¹] | kon [2] [M⁻¹ s⁻¹] | EC50 (read off the curve) [3] [nM] | EC50 (read off the curve) [4] [nM] | Kd (Human SIRPα v1 (human)) [nM] | koff (Human SIRPα v1 (human)) [s⁻¹] | kon (Human SIRPα v1 (human)) [M⁻¹ s⁻¹]
Anti-Claudin18.2/SIRPα bispecific antibody ES028-001 (bispecific antibody, not shown: a dimerising Fc or GST) light (part 1 of 2): DIVMTQSPDSLAVSLGERATINCKSSQSLLNAGNQKNYLTWYQQKPGQPPKLLIYWSSTRESGVPDRFSGSGSGTDFTLTISSLQAEDVAVYHCQNNYYYPLTFGGGTKLEIK light (part 2 of 2): GGGGSGGGGSGGGGSQIVLTQSPAIMSASPGEKVTLTCSASSSVSSSYLYWYQQKPGSSPKLWIYSTSNLASGVPARFSGSGSGTSYSLTISSMEAEDAASYFCHQWSSYPYTFGGGTKLEIKGGGGSGGGGSGGGGSGGGGSEVQLQQSGAELVKPGASVKLSCTASGFNIKDYYMHWVKQRTEQGLEWIGRIDPEDGETKYAPKFQGKATITADTSSNTAYLQLSSLTSEDTAVYYCDRGLAYWGQGTLVTVSA heavy: QVQLVQSGAEVKKPGASVKVSCKASGYTFTNWVHWVRQAPGQGLEWMGEINPTNARSNYNEKFKKRVTMTRDTSTSTVYMELSSLRSEDTAVYYCARIYYGNSFAHWGQGTLVTVSS | 0.8 | 1.51 | 0.000271 | 179000 | 2 |  |  |  | 
Anti-Claudin18.2 antibody hu28.H1L2 (antibody, V domains shown) VH: QVQLVQSGAEVKKPGASVKVSCKASGYTFTNWVHWVRQAPGQGLEWMGEINPTNARSNYNEKFKKRVTMTRDTSTSTVYMELSSLRSEDTAVYYCARIYYGNSFAHWGQGTLVTVSS VL: DIVMTQSPDSLAVSLGERATINCKSSQSLLNAGNQKNYLTWYQQKPGQPPKLLIYWSSTRESGVPDRFSGSGSGTDFTLTISSLQAEDVAVYHCQNNYYYPLTFGGGTKLEIK |  |  |  |  | 1 |  |  |  | 
Anti-Claudin18.2/SIRPα bispecific antibody ES028-005 (bispecific antibody, not shown: a dimerising Fc or GST) light: DIVMTQSPDSLAVSLGERATINCKSSQSLLNAGNQKNYLTWYQQKPGQPPKLLIYWSSTRESGVPDRFSGSGSGTDFTLTISSLQAEDVAVYHCQNNYYYPLTFGGGTKLEIK heavy (part 1 of 2): QVQLVQSGAEVKKPGASVKVSCKASGYTFTNWVHWVRQAPGQGLEWMGEINPTNARSNYNEKFKKRVTMTRDTSTSTVYMELSSLRSEDTAVYYCARIYYGNSFAHWGQGTLVTVSS heavy (part 2 of 2): GGGGSGGGGSGGGGSQIVLTQSPAIMSASPGEKVTLTCSASSSVSSSYLYWYQQKPGSSPKLWIYSTSNLASGVPARFSGSGSGTSYSLTISSMEAEDAASYFCHQWSSYPYTFGGGTKLEIKGGGGSGGGGSGGGGSGGGGSEVQLQQSGAELVKPGASVKLSCTASGFNIKDYYMHWVKQRTEQGLEWIGRIDPEDGETKYAPKFQGKATITADTSSNTAYLQLSSLTSEDTAVYYCDRGLAYWGQGTLVTVSA | 0.9 | 1.41 | 0.00047 | 334000 | 1 |  |  |  | 
Anti-SIRPα antibody C25 (antibody, V domains shown) VH: EVQLQQSGAELVKPGASVKLSCTASGFNIKDYYMHWVKQRTEQGLEWIGRIDPEDGETKYAPKFQGKATITADTSSNTAYLQLSSLTSEDTAVYYCDRGLAYWGQGTLVTVSA VL: QIVLTQSPAIMSASPGEKVTLTCSASSSVSSSYLYWYQQKPGSSPKLWIYSTSNLASGVPARFSGSGSGTSYSLTISSMEAEDAASYFCHQWSSYPYTFGGGTKLEIK | 0.5 | 2.12 | 0.00109 | 512000 |  | 0.3 | 1.53 | 0.000924 | 602000
Anti-PDL1/SIRPα bispecific antibody ES019-024 (bispecific antibody, not shown: a dimerising Fc or GST) light: QIVLTQSPAIMSASPGEKVTLTCSASSSVSSSYLYWYQQKPGSSPKLWIYSTSNLASGVPARFSGSGSGTSYSLTISSMEAEDAASYFCHQWSSYPYTFGGGTKLEIK heavy (part 1 of 2): EVQLQQSGAELVKPGASVKLSCTASGFNIKDYYMHWVKQRTEQGLEWIGRIDPEDGETKYAPKFQGKATITADTSSNTAYLQLSSLTSEDTAVYYCDRGLAYWGQGTLVTVSA heavy (part 2 of 2): EVQVVESGGGLVQSGGSLKLSCAGSGFTESAGFMVWHRQVPGKERELVALIATPSGSTNYADSVKGRFTISRDNGKNTVYLQMNSLKPEDTAVYYCNIRGYWGQGTLVTVSS |  |  |  |  |  | 0.3 |  |  | 
Anti-Claudin18.2/SIRPα bispecific antibody ES028-013 (bispecific antibody, not shown: a dimerising Fc or GST) light: QIVLTQSPAIMSASPGEKVTLTCSASSSVSSSYLYWYQQKPGSSPKLWIYSTSNLASGVPARFSGSGSGTSYSLTISSMEAEDAASYFCHQWSSYPYTFGGGTKLEIK heavy (part 1 of 2): EVQLQQSGAELVKPGASVKLSCTASGFNIKDYYMHWVKQRTEQGLEWIGRIDPEDGETKYAPKFQGKATITADTSSNTAYLQLSSLTSEDTAVYYCDRGLAYWGQGTLVTVSA heavy (part 2 of 2): GGGGSGGGGSGGGGSDIVMTQSPDSLAVSLGERATINCKSSQSLLNAGNQKNYLTWYQQKPGQPPKLLIYWSSTRESGVPDRFSGSGSGTDFTLTISSLQAEDVAVYHCQNNYYYPLTFGGGTKLEIKGGGGSGGGGSGGGGSGGGGSQVQLVQSGAEVKKPGASVKVSCKASGYTFTNWVHWVRQAPGQGLEWMGEINPTNARSNYNEKFKKRVTMTRDTSTSTVYMELSSLRSEDTAVYYCARIYYGNSFAHWGQGTLVTVSS | 0.5 |  |  |  |  |  |  |  | 
Anti-PDL1/SIRPα bispecific antibody ES019-026 (bispecific antibody, not shown: small tags and cut ends; a dimerising Fc or GST) light (part 1 of 2): EVQVVESGGGLVQSGGSLKLSCAGSGFTESAGFMVWHRQVPGKERELVALIATPSGSTNYADSVKGRFTISRDNGKNTVYLQMNSLKPEDTAVYYCNIRGYWGQGTLVTVSS light (part 2 of 2): QIVLTQSPAIMSASPGEKVTLTCSASSSVSSSYLYWYQQKPGSSPKLWIYSTSNLASGVPARFSGSGSGTSYSLTISSMEAEDAASYFCHQWSSYPYTFGGGTKLEIK heavy: EVQLQQSGAELVKPGASVKLSCTASGFNIKDYYMHWVKQRTEQGLEWIGRIDPEDGETKYAPKFQGKATITADTSSNTAYLQLSSLTSEDTAVYYCDRGLAYWGQGTLVTVSA |  |  |  |  |  | 0.4 |  |  | 
Anti-Claudin18.2/SIRPα bispecific antibody ES028-009 (bispecific antibody, not shown: a dimerising Fc or GST) light (part 1 of 2): QIVLTQSPAIMSASPGEKVTLTCSASSSVSSSYLYWYQQKPGSSPKLWIYSTSNLASGVPARFSGSGSGTSYSLTISSMEAEDAASYFCHQWSSYPYTFGGGTKLEIK light (part 2 of 2): GGGGSGGGGSGGGGSDIVMTQSPDSLAVSLGERATINCKSSQSLLNAGNQKNYLTWYQQKPGQPPKLLIYWSSTRESGVPDRFSGSGSGTDFTLTISSLQAEDVAVYHCQNNYYYPLTFGGGTKLEIKGGGGSGGGGSGGGGSGGGGSQVQLVQSGAEVKKPGASVKVSCKASGYTFTNWVHWVRQAPGQGLEWMGEINPTNARSNYNEKFKKRVTMTRDTSTSTVYMELSSLRSEDTAVYYCARIYYGNSFAHWGQGTLVTVSS heavy: EVQLQQSGAELVKPGASVKLSCTASGFNIKDYYMHWVKQRTEQGLEWIGRIDPEDGETKYAPKFQGKATITADTSSNTAYLQLSSLTSEDTAVYYCDRGLAYWGQGTLVTVSA | 0.5 | 2.44 | 0.00133 | 544000 |  |  |  |  | 
Humanized anti-SIRPα antibody hu025.021 (antibody, V domains shown) VH: EVQLVQSGAEVKKPGATVKISCKVSGFNIKDYYMHWVQQAPGKGLEWIGRIDPEDAETKYAPKFQGRVTITADTSTNTAYMELSSLRSEDTAVYYCDRGLAYWGQGTLVTVSS VL: EIVLTQSPATLSLSPGERATLSCSASSSVSSSYLYWYQQKPGQAPKLWIYSTSNLASGIPARFSGSGSGTDYTLTISSLEPEDFAVYYCHQWSSYPYTFGQGTKLEIK |  |  |  |  |  |  | 3.05 | 0.00183 | 599000
Humanized anti-SIRPα antibody hu025.059 (antibody, V domains shown) VH: EVQLVQSGAEVKKPGATVKISCKASGFNIKDYYMHWVQQAPGKGLEWIGRIDPEDAETKYAPKFQGRVTITADTSTNTAYMELSSLRSEDTAVYYCDRGLAYWGQGTLVTVSS VL: EIVLTQSPATLSLSPGERATLSCSASSSVSSSYLYWYQQKPGQAPKLWIYSTSNLASGIPARFSGSGSGTDYTLTISSLEPEDFAVYYCHQWSSYPYTFGQGTKLEIK |  |  |  |  |  |  | 2.29 | 0.00123 | 536000
Humanized anti-SIRPα antibody hu025.023 (antibody, V domains shown) VH: EVQLVQSGAEVKKPGATVKISCKVSGFNIKDYYMHWVQQAPGKGLEWIGRIDPEDAETKYAPKFQGRVTITADTSTNTAYMELSSLRSEDTAVYYCDRGLAYWGQGTLVTVSS VL: EIVLTQSPATLSLSPGERATLSCSASSSVSSSYLYWYQQKPGQAPKLWIYSTSNLASGIPARFSGSGSGTDFTLTISSLEPEDFAVYYCHQWSSYPYTFGQGTKLEIK |  |  |  |  |  |  | 2.67 | 0.00172 | 643000
Humanized anti-SIRPα antibody hu025.060 (antibody, V domains shown) VH: EVQLVQSGAEVKKPGATVKISCKASGFNIKDYYMHWVQQAPGKGLEWIGRIDPEDAETKYAPKFQGRVTITADTSTNTAYMELSSLRSEDTAVYYCDRGLAYWGQGTLVTVSS VL: EIVLTQSPATLSLSPGERATLSCSASSSVSSSYLYWYQQKPGQAPKLWIYSTSNLASGIPARFSGSGSGTDFTLTISSLEPEDFAVYYCHQWSSYPYTFGQGTKLEIK |  |  |  |  |  |  | 1.99 | 0.00111 | 560000
